Laboratory results taken from PMC7244319.

Tests used:
GST-cGAS (human) = GST-cGAS (human) (Homo sapiens, UniProt Q8N884 1-522); assay: streptavidin pull-down, WB quantification
GST-LysRS (human) = GST-LysRS (human) (Homo sapiens, UniProt Q15046 1-597); assay: streptavidin pull-down, WB quantification
GST-mLysRS = GST-mLysRS (Mus musculus, UniProt Q99MN1 1-595); assay: streptavidin pull-down
Sequence of GST-mLysRS (Q99MN1 whole entry): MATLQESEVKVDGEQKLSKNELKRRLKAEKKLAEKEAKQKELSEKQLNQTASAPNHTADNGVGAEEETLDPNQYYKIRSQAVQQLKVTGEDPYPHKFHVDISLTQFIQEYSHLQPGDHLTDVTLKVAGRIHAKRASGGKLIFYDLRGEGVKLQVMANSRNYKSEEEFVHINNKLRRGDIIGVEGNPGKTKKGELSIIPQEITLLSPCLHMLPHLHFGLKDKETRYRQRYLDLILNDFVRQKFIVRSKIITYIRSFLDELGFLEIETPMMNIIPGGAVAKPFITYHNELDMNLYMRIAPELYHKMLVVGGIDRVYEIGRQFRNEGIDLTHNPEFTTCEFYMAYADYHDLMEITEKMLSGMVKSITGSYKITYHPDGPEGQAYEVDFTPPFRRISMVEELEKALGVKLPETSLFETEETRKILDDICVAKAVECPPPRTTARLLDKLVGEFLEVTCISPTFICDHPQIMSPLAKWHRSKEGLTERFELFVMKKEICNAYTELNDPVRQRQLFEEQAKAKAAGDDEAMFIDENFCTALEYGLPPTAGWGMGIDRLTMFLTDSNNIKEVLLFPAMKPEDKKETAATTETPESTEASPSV

Sequence of GST-LysRS (human) (Q15046 whole entry): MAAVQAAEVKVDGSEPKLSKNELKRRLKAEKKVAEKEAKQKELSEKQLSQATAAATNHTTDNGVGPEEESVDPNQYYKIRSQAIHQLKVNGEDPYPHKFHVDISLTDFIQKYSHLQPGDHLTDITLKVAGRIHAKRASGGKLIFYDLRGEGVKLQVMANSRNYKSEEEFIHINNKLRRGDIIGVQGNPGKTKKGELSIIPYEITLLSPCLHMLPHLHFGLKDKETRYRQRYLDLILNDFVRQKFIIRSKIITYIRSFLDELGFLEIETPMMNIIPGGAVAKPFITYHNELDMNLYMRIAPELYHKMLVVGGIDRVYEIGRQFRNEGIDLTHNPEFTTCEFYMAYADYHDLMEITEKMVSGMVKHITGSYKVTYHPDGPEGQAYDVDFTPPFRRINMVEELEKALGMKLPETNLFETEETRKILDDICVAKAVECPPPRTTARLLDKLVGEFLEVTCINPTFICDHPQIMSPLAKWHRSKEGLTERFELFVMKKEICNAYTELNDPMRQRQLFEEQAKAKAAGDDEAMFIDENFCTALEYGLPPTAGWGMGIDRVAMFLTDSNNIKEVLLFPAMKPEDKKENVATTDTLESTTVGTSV
Sequence of GST-cGAS (human) (Q8N884 whole entry): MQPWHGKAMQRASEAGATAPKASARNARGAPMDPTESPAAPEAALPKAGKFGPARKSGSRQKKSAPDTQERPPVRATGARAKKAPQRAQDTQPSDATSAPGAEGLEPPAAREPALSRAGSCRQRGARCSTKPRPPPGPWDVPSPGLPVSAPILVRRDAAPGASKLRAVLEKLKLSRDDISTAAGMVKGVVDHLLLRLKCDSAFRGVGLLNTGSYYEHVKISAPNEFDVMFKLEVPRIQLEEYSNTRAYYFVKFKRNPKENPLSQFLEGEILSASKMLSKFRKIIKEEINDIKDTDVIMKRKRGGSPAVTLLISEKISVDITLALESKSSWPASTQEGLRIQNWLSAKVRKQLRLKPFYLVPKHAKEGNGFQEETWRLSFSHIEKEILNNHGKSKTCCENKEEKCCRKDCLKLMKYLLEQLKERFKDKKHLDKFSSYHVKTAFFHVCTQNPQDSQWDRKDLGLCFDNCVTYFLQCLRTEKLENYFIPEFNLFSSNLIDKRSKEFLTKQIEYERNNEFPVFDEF

B1: BRNA:DNA hybrid (BRNA 2/DNA 9) (DNA:RNA)
RNA: UUUCAAUUCCUUUUAGGAUUAAUCUUGAAGAUAGAGUUAA
DNA: TTAACTCTATCTTCAAGATTAATCCTAAAAGGAATTGAAA
Question: What does the source list for B1?
Answer: Kd (GST-cGAS (human)): ~8.05 nM; Kd (GST-LysRS (human)): ~11.3 nM; binding result (GST-mLysRS): binds
